Assay results reported in patent US20130289246A1 (VANDERBILT UNIVERSITY, published 2013).

Tests used:
[1] = molecular target: T1, recombinant soluble 1968 H3 HA (A/Aichi/2/1968) (Influenza A virus A/Aichi/2/1968 (H3N2), UniProt P03437 17-530); test: ELISA, supernate
[2] = molecular target: recombinant soluble trimeric 1918 H1 HA (A/South Carolina/1/1918, wild type) (Influenza A virus A/South …, UniProt Q9WFX3 18-529); test: ELISA, supernate
[3] = molecular target: T1, recombinant soluble 1968 H3 HA …; test: ELISA, supernate; remark: listed apart in the source
[4] = molecular target: T1, recombinant soluble 1968 H3 HA …; test: ELISA, recombinant mAb

Chain of recombinant soluble trimeric 1918 H1 HA (A/South Carolina/1/1918, wild type) (Q9WFX3 18-529): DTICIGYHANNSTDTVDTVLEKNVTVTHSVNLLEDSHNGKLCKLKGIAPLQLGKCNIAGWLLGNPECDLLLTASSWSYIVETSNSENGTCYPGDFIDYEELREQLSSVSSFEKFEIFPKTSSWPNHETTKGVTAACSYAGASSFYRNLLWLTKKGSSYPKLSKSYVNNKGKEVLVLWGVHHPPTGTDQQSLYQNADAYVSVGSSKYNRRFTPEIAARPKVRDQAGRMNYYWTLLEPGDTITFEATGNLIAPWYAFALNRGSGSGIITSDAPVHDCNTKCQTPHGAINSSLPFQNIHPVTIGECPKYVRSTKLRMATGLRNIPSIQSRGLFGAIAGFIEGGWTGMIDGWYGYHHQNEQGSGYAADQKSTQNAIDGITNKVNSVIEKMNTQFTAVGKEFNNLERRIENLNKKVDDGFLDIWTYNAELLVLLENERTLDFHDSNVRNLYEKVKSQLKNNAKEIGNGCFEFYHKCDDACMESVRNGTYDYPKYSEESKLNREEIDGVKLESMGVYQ

B1: mAb 10E15 (antibody, V domains shown)
VH: EVQLLESGGGVVQPGRSLRLSCAASGFTFRTYGMHWVRQAPGKGLEWVAVISHDGNLKYYGGSVKGRFTISRDNSKNALYLQMNSLRVDDTALYYCARGIGITDAFDIRGQGTMVVVS
VL: QSVLTQPPSVSAAPGQKVTISCSGSSSNIGKNYVSWYQQLPGTAPKLLIYDNDKRPSGIPDRFSGSKSGTSATLGITGLQTGDEADYHCGAWDSSLNGGVFGGGTKVTVLG
B1 showed an OD [1] of 0.074 OD.

B2: mAb 3E22 (antibody, V domains shown)
VH: EVQLVESGAEVKKPGASVKVSCKASGYTFSRYYIHWVRQAPGQELEWMGWINPDSGDTNYAQKFRGRVTMARDTSISTVYMELNSLRYDDTAVYFCARIIWSSSGMDVWGQGTTVTVS
VL: QSALTQPASVSGSPGQSITISCTGTSSDVGSYNLVSWYQQHPGKAPKLMIYEVSKRPSGVSNRFSGSKSGNTASLTISGLQAEDEADYYCHLYVGSSNWVFGGGTKLAVLG
Binder B2 has an OD [2] of 0.741 OD and an OD [3] of 0.379 OD.

B3: mAb 3N6 (recombinant) (antibody, V domains shown)
VH: QVQLQESGPGLVKPSETLSLTCSVSGGSINYYYWSWIRQPPGKGLECIGYISDTGRTYYNPSLRSRVTISVDTSKNQFSLNLTSMTAADTAVYYCARDPTGSRQKNAFDMWGQGTMVTVS
VL: AIQMTQSPSSLSASVGDRVTITCRASQNIRSYLNWYQQKPGKAPNLLIYGTTSLESGVPSRFSGSGSGTDFTLTISSLQPEDFATYYCQQSYHTPQTFGQGTKVEIKR
With B3 the OD [4] was 0.069 OD.
